According to IntAct's records for PubMed 10722738:

B1: Early protein (Human adenovirus A serotype 12 (HAdV-12)), P03259-2 (parent)
chain: MRTEMTPLVLSYQEADDILEHLVDNFFNEVPSDDDLYVPSLYELYDLDVESAGEDNNEQAVNEFFPESLILAASEGLFLPEPPVLSPVCEPIGGECMPQLHPEDMDLLCYEMGFPCSDSEDEQDENGMAHVSASAAAAAADREREEFQLDHPELPGHNCPVSDNEPEPNSTLDGDERPSPPKLGSAVPEGVIKPVPQRVTGRRRCAVESILDLIQEEEREQTVPVDLSVKRPRCN

Variants of: B1
Conditions: with cbp_human CREBBP

Question: D16A was tested. Which “effect of a mutation on the interaction” value did it give?
Answer: disrupting interaction

Question: Which “effect of a mutation on the interaction” value does the source give for I18P here?
Answer: decreasing interaction

Question: L19S was tested. Which “effect of a mutation on the interaction” value did it give?
Answer: decreasing interaction
